The record followed here is patent US20140120555A1 (PIERRE FABRE MEDICAMENT, published 2014).

Assay [1] addresses T1, Recombinant mouse FcγRI [CD64], Gln25-Pro297 with C-terminal 6-His tag (mouse, UniProt P26151 25-297).
T1 construct: range 25-297; Soluble form bought from R&D Systems; also called m-FcγRI
T1 sequence: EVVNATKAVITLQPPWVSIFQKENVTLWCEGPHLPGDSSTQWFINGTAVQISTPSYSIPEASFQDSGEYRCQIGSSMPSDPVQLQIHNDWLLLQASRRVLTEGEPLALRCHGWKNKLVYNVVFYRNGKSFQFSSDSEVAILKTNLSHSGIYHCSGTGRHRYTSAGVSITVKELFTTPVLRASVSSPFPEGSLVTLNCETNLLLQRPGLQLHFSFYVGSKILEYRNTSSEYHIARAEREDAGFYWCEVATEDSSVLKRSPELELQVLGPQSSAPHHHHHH
Kind of assay: SPR (Biacore X), Mab on CM4 chip, m-FcγRI as analyte, heterogeneous ligand model, major component; major component (81%), higher value. How it is done:
(§1) 2017 RU of c515H7 Mab were immobilized using the amine coupling kit chemistry on the second flowcell (FC2) of a CM4 sensorchip. The first flowcell (FC1) activated by NHS and EDC mixture and des-activated by ethanolamine served as the reference surface to check and subtract the non specific interaction between the analyte (Fc gamma receptors) and the sensorchip matrix.
(§2) The kinetic experiments were carried out at 25° Celsius at a flow rate of 30 μl/min. The HBS-EP buffer was used either as the running buffer or for the preparation of analyte solutions. The analyte solutions were injected during 90 seconds (association phase) with a 90 seconds delay (dissociation phase). An injection of running buffer as analyte was used as a double reference. All the sensorgrams were corrected by this double reference sensorgram.
(§3) According to this model, the c515H7 Mab Fc domain may be regarded as a mixture of two components.
On the technique in general: Surface plasmon resonance follows binding to a sensor surface in real time, without labels.

Assay [2] addresses T1, Recombinant mouse FcγRI [CD64], …. Kind of assay: SPR (Biacore X), Mab on CM4 chip, m-FcγRI as analyte, heterogeneous ligand model, major component; major component (81%), lower value. How it is done: as §1, §2, §3
In assay [3] the target is T2, Recombinant human FcγRIIIA variant V [CD16a], Gln17-Gln208 with C-terminal 6-His tag (human, UniProt P08637 17-208).
T2 construct: range 17-208; 'variant V' is given without a position, so no substitution is written; also called h-FcγRIIIA
T2 sequence (P08637 other isoform, or with tags, fused parts or gaps mutant limits assumed, form in doubt): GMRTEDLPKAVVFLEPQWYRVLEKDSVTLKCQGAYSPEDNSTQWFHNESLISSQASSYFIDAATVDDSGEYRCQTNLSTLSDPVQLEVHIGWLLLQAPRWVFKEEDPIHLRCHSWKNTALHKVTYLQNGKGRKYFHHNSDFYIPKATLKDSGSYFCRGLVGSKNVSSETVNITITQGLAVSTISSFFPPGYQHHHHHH
Description: SPR (Biacore X): h-FcγRIIIA injected over c515H7 Mab immobilized on a CM4 sensorchip; heterogeneous ligand model, major component (81%). How it is done:
as §1, §2
(§4) After each injection of the analyte, the sensorchip was regenerated by injection of 20 mM NaOH, 75 mM NaCl solution.

The target in assay [4] is T3, Recombinant human FcγRI [CD64], Gln16-Pro288 with C-terminal 6-His tag (human, UniProt P12314 16-288).
T3 construct: range 16-288; Soluble form bought from R&D Systems; also called h-FcγRI
T3 sequence (P12314 other isoform, or with tags, fused parts or gaps limits assumed): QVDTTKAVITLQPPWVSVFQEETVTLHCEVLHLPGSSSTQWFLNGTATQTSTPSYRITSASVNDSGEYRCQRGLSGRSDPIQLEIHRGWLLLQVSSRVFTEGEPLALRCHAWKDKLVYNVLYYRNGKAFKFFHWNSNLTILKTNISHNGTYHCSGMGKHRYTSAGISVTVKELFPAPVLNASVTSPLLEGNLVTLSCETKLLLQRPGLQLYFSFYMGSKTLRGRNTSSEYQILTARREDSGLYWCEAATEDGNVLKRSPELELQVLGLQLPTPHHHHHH
Description: SPR (Biacore X): h-FcγRI injected over c515H7 Mab immobilized on a CM4 sensorchip; heterogeneous ligand model, major component (100%). How it is done:
as §1, §2, §4

The target of assay [5] is T4, Recombinant mouse FcγRIII [CD16], Ala31-Thr215 with C-terminal 10-His tag (mouse, UniProt P08508 31-215).
T4 construct: Soluble form bought from R&D Systems; also called m-FcγRIII
T4 sequence: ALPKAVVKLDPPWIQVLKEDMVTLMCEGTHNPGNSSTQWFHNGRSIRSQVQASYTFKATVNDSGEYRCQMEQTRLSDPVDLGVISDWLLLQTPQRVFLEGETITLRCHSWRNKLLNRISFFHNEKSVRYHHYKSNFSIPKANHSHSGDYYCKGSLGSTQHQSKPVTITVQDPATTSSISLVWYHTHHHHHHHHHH
Description: SPR (Biacore X): m-FcγRIII injected over hz515H7VH1D76NVL2 Mab immobilized on a CM4 sensorchip; Langmuir model. The method, then: (§5) 1964 RU of hz515H7VH1D76NVL2 Mab were immobilized using the amine coupling kit chemistry on the second flowcell (FC2) of a CM4 sensorchip. The first flowcell (FC1) activated by NHS and EDC mixture and des-activated by ethanolamine served as the reference surface to check and subtract the non specific interaction between the analyte (Fc gamma receptors) and the sensorchip matrix.
as §2
(§6) Using the Langmuïr model the constant of dissociation was around 17 and 18 nM.

Assay [6] deals with T1, Recombinant mouse FcγRI [CD64], …. Kind of assay: SPR (Biacore X), Mab on CM4 chip, m-FcγRI as analyte, heterogeneous ligand model, minor component. The method, then: as §5, §2
(§7) After each injection of the analyte, the sensorchip was regenerated by injection of either 20 mM NaOH solution after h-FcγRI and m-FcγRIII or 10 mM NaOH after h-FcγRIIIA and m-FcγRI.

In assay [7] the target is T2, Recombinant human FcγRIIIA variant V …. Kind of assay: SPR (Biacore X): h-FcγRIIIA injected over hz515H7VH1D76NVL2 Mab immobilized on a CM4 sensorchip; Langmuir model. The method, then: as §5, §2, §7
Assay [8] has as its target T4, Recombinant mouse FcγRIII [CD16], …. Kind of assay: SPR (Biacore X), Mab on CM4 chip, m-FcγRIII as analyte, Langmuïr model; higher of the two Langmuïr-fit values. How it is done: as §5, §2, §6
For assay [9], the target named is T3, Recombinant human FcγRI [CD64], …. Description: SPR (Biacore X): h-FcγRI injected over hz515H7VH1D76NVL2 Mab immobilized on a CM4 sensorchip; Langmuir model. How it is done:
The experiments were carried out using a Biacore X device. The soluble forms of the four Fc […]gamma receptors used in this study were purchased from R&D Systems: […]

B1: chimeric antibody c515H7 (antibody, human IgG1, kappa)
heavy: not shown
light: DIVMSQSPSSLAVSAGEKVTMSCKSSQSLFNSRTRKNYLAWYQQKPGQSPKLLIYWASARDSGVPARFTGSGSETYFTLTISRVQAEDLAVYYCMQSFNLRTFGGGTKLEIKRTVAAPSVFIFPPSDEQLKSGTASVVCLLNNFYPREAKVQWKVDNALQSGNSQESVTEQDSKDSTYSLSSTLTLSKADYEKHKVYACEVTHQGLSSPVTKSFNRGEC
notes: Human IgG1/kappa constant domains; also called c515H7 Mab; chimeric 515H7
For orientation: Kd means the constant that tells how readily two partners part at equilibrium. For orientation: koff means a measure of how fast the partners let go of each other. What is called kon is a measure of how fast the partners come together. For B1, the Kd in assay [1] is ~450 nM; in assay [2], ~380 nM; in assay [3], 395 nM; in assay [4] it was 1.22 nM. The koff in assay [3] was 0.185 s⁻¹; in assay [4], 0.000599 s⁻¹. In addition, the kon was found to be 468000 M⁻¹ s⁻¹ in [3] and 493000 M⁻¹ s⁻¹ in [4].

B2: humanized antibody Hz515H7 VH1 D76N VL2 (antibody, human IgG1, kappa)
heavy: not shown
light: DIVMTQSPSSLAVSLGERATMSCKSSQSLFNSRTRKNYLAWYQQKPGQSPKLLIYWASARDSGVPARFTGSGSETYFTLTISRVQAEDLAVYYCMQSFNLRTFGQGTKVEIKRTVAAPSVFIFPPSDEQLKSGTASVVCLLNNFYPREAKVQWKVDNALQSGNSQESVTEQDSKDSTYSLSSTLTLSKADYEKHKVYACEVTHQGLSSPVTKSFNRGEC
notes: IgG1/kappa; also called hz515H7VL2; hz515H7-1
B2: the Kd in assay [5] was 17.4 nM; in assay [6], ~90 nM; in assay [7], 75.2 nM; in assay [8], ~18 nM; in assay [9] it was 0.93 nM. Further, the figures for the koff in assay [5], in [7] and in assay [9] were 0.00364 s⁻¹, 0.0351 s⁻¹ and 0.00054 s⁻¹, respectively. In addition, the kon was 209000 M⁻¹ s⁻¹ in assay [5], 467000 M⁻¹ s⁻¹ in [7] and 578000 M⁻¹ s⁻¹ in assay [9].
